Experiment [1] concerns the target T1, cynomolgus monkey SIRPγ-His monomer protein (cynomolgus monkey, UniProt Q9P1W8 29-359 (human entry), limits assumed).
T1 construct: also called Cyno SIRPγ; Cyno SIRPγ-His
T1 chain: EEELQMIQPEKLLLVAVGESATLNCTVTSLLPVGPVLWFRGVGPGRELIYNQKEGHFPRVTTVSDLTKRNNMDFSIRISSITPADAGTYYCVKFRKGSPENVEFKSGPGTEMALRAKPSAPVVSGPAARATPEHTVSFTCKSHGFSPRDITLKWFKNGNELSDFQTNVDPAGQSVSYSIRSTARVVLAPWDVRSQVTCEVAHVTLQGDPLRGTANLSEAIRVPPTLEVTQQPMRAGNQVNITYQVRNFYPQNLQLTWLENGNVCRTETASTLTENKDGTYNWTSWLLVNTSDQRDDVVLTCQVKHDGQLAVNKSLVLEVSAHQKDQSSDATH
Briefly: BLI Octet, captured scFv PPE, cyno SIRP. The method, then:
Unique binders were further tested for binding to human SIRPαV1, human SIRPαV2, and human SIRPβ1. Briefly, biotinylated anti-V5 was immobilized onto streptavidin biosensors. Each V5-tagged SIRPγ scFv antibody as crude PPE was captured by the anti-V5 antibody. SIRP-His monomer protein at 500 nM was exposed to the biosensor for binding to SIRP scFv. The biosensors were then exposed to wash buffer to measure off-rate kinetics. The resulting association and dissociation kinetics (kdis) was analyzed. […] Similarly, cross-reactivity to cynomolgus monkey SIRPγ, cynomolgus monkey SIRPα, and cynomolgus monkey SIRPβ1 were tested.

Experiment [2] deals with T2, human SIRPγ on stably transfected CHO cells (human, UniProt Q9P1W8 29-387).
T2 construct: also called Human SIRPγ CHO
T2 sequence (Q9P1W8 29-387 limits assumed): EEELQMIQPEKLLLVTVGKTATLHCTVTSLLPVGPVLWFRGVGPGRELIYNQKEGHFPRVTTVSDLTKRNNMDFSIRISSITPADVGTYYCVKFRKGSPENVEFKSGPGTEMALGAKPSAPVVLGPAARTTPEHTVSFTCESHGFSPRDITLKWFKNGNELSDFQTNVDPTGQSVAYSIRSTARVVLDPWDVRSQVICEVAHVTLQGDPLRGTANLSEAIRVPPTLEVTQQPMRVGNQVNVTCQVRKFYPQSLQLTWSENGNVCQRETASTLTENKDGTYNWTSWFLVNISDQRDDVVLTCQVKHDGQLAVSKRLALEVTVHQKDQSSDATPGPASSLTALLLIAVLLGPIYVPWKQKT
Briefly: flow cytometry, myc-scFv PPE. The procedure, abridged: (§1)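 The CHO lines were stably transfected, with SIRPβ1 co-transfected with DAP12 where present. Titrated antibody was detected by labelled anti-human IgG and scored as MFI. The myc-scFv PPE was screened on these lines and on CHO-K1 parental cells, and fold change <2.0 was classed as non-binder.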
In general terms: In flow cytometry, cells or beads pass a laser one at a time.

For experiment [3], the target named is T3, cynomolgus monkey SIRPγ on CHO cells (cynomolgus monkey, UniProt Q9P1W8 29-386 (human entry)).
T3 construct: also called Cyno SIRPγ CHO
T3 chain: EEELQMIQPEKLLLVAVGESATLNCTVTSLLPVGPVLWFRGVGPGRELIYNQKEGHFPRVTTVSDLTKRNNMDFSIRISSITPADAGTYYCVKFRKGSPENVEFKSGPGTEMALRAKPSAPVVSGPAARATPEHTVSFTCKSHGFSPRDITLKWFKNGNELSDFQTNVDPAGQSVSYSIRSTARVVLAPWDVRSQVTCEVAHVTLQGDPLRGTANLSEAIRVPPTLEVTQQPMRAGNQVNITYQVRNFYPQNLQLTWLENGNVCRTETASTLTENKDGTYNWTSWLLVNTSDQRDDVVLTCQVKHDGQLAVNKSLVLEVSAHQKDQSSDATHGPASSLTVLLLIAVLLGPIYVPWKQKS
Briefly: flow cytometry, myc-scFv PPE. The gist of the method:
as §1

For experiment [4], the target named is T4, human SIRPβ1 on CHO cells (co-transfected with DAP12) (human, UniProt O00241 30-398).
T4 construct: whole, on cells; co-transfected with DAP12; also called Human SIRPβ1 CHO
T4 sequence (O00241 30-398): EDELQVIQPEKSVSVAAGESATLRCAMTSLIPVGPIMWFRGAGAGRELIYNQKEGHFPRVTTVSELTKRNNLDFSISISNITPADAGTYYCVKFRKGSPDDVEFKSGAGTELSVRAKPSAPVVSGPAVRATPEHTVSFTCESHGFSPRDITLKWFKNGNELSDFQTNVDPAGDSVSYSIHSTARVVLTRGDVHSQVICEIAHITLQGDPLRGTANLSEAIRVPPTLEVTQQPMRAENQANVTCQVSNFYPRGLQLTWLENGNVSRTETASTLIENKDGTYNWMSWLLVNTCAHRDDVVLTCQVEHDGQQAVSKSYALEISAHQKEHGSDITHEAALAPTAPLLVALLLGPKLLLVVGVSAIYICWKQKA
Briefly: flow cytometry.

The target of experiment [5] is T5, human SIRPγ-His monomer protein (human, UniProt Q9P1W8 29-360).
T5 construct: also called hSIRPγ
T5 sequence (Q9P1W8 29-360 limits assumed): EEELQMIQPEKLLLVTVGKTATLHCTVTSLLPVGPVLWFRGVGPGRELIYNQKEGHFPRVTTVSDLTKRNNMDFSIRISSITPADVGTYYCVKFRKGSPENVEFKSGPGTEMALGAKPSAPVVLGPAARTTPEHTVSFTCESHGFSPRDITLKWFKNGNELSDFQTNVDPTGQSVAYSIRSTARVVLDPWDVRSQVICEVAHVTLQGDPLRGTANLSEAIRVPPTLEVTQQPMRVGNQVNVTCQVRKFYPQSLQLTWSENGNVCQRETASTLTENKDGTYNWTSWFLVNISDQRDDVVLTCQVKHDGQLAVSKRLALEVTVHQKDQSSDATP
As to the kind of experiment: BLI Octet, V5-scFv PPE captured, SIRP-His 500 nM. (In BLI a coated tip is dipped into the sample, and binding shifts an interference pattern.)

Experiment [6] has as its target T6, Cynomolgus Monkey SIRPγ (plate-coated extracellular domain).
T6 construct: also called Cyno SIRPγ
T6 extracellular domain: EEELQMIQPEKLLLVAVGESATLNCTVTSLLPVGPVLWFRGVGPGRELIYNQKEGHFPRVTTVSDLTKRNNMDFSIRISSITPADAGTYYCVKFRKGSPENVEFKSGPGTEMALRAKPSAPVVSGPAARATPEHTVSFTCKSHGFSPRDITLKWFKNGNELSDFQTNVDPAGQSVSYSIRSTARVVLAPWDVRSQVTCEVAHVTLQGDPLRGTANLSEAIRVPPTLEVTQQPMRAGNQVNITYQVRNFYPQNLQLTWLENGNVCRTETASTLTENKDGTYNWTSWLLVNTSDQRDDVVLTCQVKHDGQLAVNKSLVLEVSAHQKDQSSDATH
Briefly: ELISA, coated SIRP ECD (2 µg/mL), anti-human IgG, luminescence. The method, then: (§2) Selected hybridoma supernatants of Example 1 were tested for binding to human SIRPγ, cynomolgus monkey SIRPγ, human SIRPα V1, cynomolgus monkey SIRPα, human SIRPβ1, and cynomolgus monkey SIRPβ1 by enzyme-linked immunosorbent assay (ELISA). Briefly, 2 μg/mL of the extracellular domain of SIRP protein was coated onto high protein-binding plates and blocked. Undiluted supernatants were added to coated plates. The antibodies were detected by an anti-rat antibody and a chemiluminescent substrate. […] The data depict the relative luminescence units read by a plate-reader capable of detecting chemiluminescence.
(§3) FIGS. 2A-2G show binding curves of SIRPγ antibodies and human Fc isotype controls to human SIRPγ, cynomolgus monkey SIRPγ, human SIRPα V1, human SIRPα V2, and human SIRPβ1 by ELISA. […] Isotype control 2 was an unrelated human IgG1 antibody with irrelevant CDRs with no modifications in the Fc region. DNA was transiently transfected into Expi293F cells for 5 days. Antibodies were purified by Protein A from cell supernatants and analyzed in a titration via ELISA as previously described in FIG. 1 using an anti-human IgG antibody as the detection antibody.

Experiment [7] deals with T7, extracellular binding domain of human SIRPγ (plate-coated) (human, UniProt Q9P1W8 29-360).
T7 construct: also called hSIRPγ
T7 sequence (Q9P1W8 29-360 limits assumed): as the sequence (Q9P1W8 29-360 limits assumed) above
The description is as above. The method, then:
as §2, §3

The target of experiment [8] is T8, cynomolgus monkey SIRPα on CHO cells (cynomolgus monkey, UniProt A0A2K5VYQ9 31-507).
T8 construct: whole, on cells; also called Cyno SIRPα CHO
T8 sequence: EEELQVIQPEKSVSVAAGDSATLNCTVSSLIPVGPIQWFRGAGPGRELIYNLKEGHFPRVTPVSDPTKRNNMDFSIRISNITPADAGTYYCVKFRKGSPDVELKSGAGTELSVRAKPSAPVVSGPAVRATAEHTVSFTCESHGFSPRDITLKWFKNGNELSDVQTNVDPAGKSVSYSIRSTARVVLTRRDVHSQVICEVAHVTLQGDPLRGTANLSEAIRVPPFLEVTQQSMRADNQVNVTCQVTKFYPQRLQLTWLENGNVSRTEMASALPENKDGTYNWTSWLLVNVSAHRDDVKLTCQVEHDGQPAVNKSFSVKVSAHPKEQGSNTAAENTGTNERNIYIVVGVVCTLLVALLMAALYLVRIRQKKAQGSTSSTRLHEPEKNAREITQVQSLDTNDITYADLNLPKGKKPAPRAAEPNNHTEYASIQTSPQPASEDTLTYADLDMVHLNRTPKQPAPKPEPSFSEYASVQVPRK
As to the kind of experiment: flow cytometry, CHO transfectants, anti-human IgG. The method, then:
(§4) Selected antibodies were tested for binding to stably transfected human SIRPγ, SIRPαV1, or SIRPβ1 (co-transfected with DAP12) Chinese hamster ovary (CHO) cells via flow cytometry. A titration of select antibodies was added to the cells and detected using a fluorescently labelled secondary anti-rat IgG antibody or anti-human IgG antibody. Graphs depict the median fluorescence intensity (MFI) at each concentration. FIGS. 5A and 5G show the binding curves of select antibodies to human SIRPγ, cynomolgus monkey SIRPγ, human SIRPα, cynomolgus monkey SIRPα, human SIRPβ1, or cynomolgus monkey SIRPβl-expressing CHO cells detected using an anti-rat IgG antibody. FIGS. 5B-5F and 5H-5L show the binding curves of select antibodies to human SIRPγ, cynomolgus monkey SIRPγ, human SIRPα, cynomolgus monkey SIRPα, human SIRPβ1, or cynomolgus monkey SIRPβ1-expressing CHO cells detected using an anti-human IgG antibody. […] For select antibodies, each myc-tagged SIRPγ scFv antibody as crude PPE was incubated with each of the SIRP-expressing cell lines stated above along with the parental CHO-K1 cell line. […] Fold change value <2.0 is considered a non-binder.

Experiment [9] deals with T4, human SIRPβ1 on CHO cells …. Briefly: flow cytometry, CHO transfectants, anti-human IgG. The method, then:
as §4

The target of experiment [10] is T8, cynomolgus monkey SIRPα on CHO cells. As to the kind of experiment: flow cytometry.

B1: Antibody 37 (scFv, V domains shown)
VH: QVQLVQSGAEVKKPGASVKVSCKASGYTLNNYDINWVRQAPGQGLEWMGWISGYNGNTNYAQKLQGRVTMTRDTSTSTVYMELSSLRSEDTAVYYCARVGSSWEENDQWGQGTLVTVSS
VL: DIQMTQSPSSLSASVGDRVTITCRASQSISRWLAWYQQKPGKAPKLLIYAASSLESGVPSRFSGSGSGTDFTLTISSLQPEDFATYYCQQTHSFPLTFGGGTKVEIK
notes: scFv in crude PPE, V5/myc-tagged
Take B1: the binding result is “binds” in [1] and “no binding (tested: fold change <2.0)” in experiment [4]. The “MFI fold change over parental CHO” value in [2] is 31.1 fold; in [3], 15.5 fold. In addition, the kdis in experiment [5] fell in the range of 0.001 to 0.01 s⁻¹.

B2: Antibody 72 (antibody, V domains shown)
VH: QVQLVQSGAEVKKPGASVKVSCKASGYTFTDNYLHWVRQAPGQGLEWMGIIETSGGSTDYAQKFQGRVTMTRDTSTSTVYMELSSLRSEDTAVYYCARSFGGYSYDDAFDIWGQGTTVTVSS
VL: DIQMTQSPSSLSASVGDRVTITCQASQGISNYLNWYQQKPGKAPKLLIYAASSLQSGVPSRFSGSGSGTDFTLTISSLQPEDFATYYCQQSYSSPYTFGQGTKVEIK
As for B2, the EC50 (read off the curve) (as a rule, the midpoint of the concentration-response curve) in experiment [6] was around 0.3 µg/mL; in experiment [7], around 0.2 µg/mL. Further, the binding result in [8] and in experiment [9] was “no binding (tested: about 20 µg/mL)” each time.

B3: Antibody 46 (scFv, V domains shown)
VH: QVQLVQSGAEVKKPGASVKVSCKASGYTFSSYAISWVRQAPGQGLEWMGWMDPNSGNTGYAQKFQGRVTMTRDTSTSTVYMELSSLRSEDTAVYYCARESSYYYDSSGYYPGWYFDLWGRGTLVTVSS
VL: DIQMTQSPSSLSASVGDRVTITCQASQDISNYLNWYQQKPGKAPKLLIYAASTLQTGVPSRFSGSGSGTDFTLTISSLQPEDFATYYCQQSYSTPWTFGPGTKVDIK
notes: as for B1
Take B3: the binding result in experiment [1] is reported as “binds”; in [4] it was “no binding (tested: fold change <2.0)”. Besides, the “MFI fold change over parental CHO” value in [2] came to 13.1 fold; in [3] it was 16 fold. Moreover, the kdis in [5] is above 0.01 s⁻¹.

B4: Antibody 12 (scFv, V domains shown)
VH: QVQLVQSGAEVKKPGASVKVSCKASGGTFGSYGINWVRQAPGQGLEWMGWISAYNGNTNYAQKLQGRVTMTRDTSTSTVYMELSSLRSEDTAVYYCARDGIDYGGNSGYDYWGQGTLVTVSS
VL: DIQMTQSPSSLSASVGDRVTITCRASQNIRNYLNWYQQKPGKAPKLLIYAASSLQGGVPSRFSGSGSGTDFTLTISSLQPEDFATYYCQQSYNGPYTFGQGTKVEIK
notes: as for B1
Turning to B4, the binding result was “binds” in experiment [1] and “no binding (tested: fold change <2.0)” in experiment [4]. For the same molecule, the entries for the “MFI fold change over parental CHO” value in experiment [2] and in experiment [3] were 10.7 fold and 5.94 fold, respectively. In addition, the kdis in [5] is 0.001 to 0.01 s⁻¹.

B5: Antibody 70 (antibody, V domains shown)
VH: QVQLVQSGAEVKKPGASVKVSCKASGYTFSNYYMHWVRQAPGQGLEWMGWMNPNSGNTGYAQKFQGRVTMTRDTSTSTVYMELSSLRSEDTAVYYCARASMYSSSGFDYWGQGTLVTVSS
VL: DIVMTQSPLSLPVTPGEPASISCRSSQSLLHSNGYNYLDWYLQKPGQSPQLLIYLASTRAPGVPDRFSGSGSGTDFTLKISRVEAEDVGVYYCMQGSHWPPSFGQGTRLEIK
In the case of B5, the “EC50 (read off the curve)” value in experiment [6] is around 0.05 µg/mL; in experiment [7], around 0.03 µg/mL. Moreover, the binding result in experiment [8] and in experiment [9] was “no binding (tested: about 20 µg/mL)” in each case.

B6: Antibody 11 (scFv, V domains shown)
VH: QVQLVQSGAEVKKPGASVKVSCKASGYTFTSYDINWVRQAPGQGLEWMGWMNPNSGNTGYAQKFQGRVTMTRDTSTSTVYMELSSLRSEDTAVYYCAKGAVAGTYYYYGMDVWGQGTTVTVSS
VL: DIQMTQSPSSLSASVGDRVTITCRASQTINNYLNWYQQKPGKAPKLLIYDASNLETGVPSRFSGSGSGTDFTLTISSLQPEDFATYYCQQANSFPLTFGQGTKVEIK
notes: as for B1
Turning to B6, the binding result in experiment [1] is listed as “binds”; in experiment [4] it was “no binding (tested: fold change <2.0)”. For the same molecule, the results for the “MFI fold change over parental CHO” value in experiment [2] and in experiment [3] were 3.98 fold and 6.18 fold, respectively. Also, the kdis in [5] lay in the range of 0.001 to 0.01 s⁻¹.

B7: Antibody 17 (scFv, V domains shown)
VH: QVQLVQSGAEVKKPGASVKVSCKASGYTFTRNYVHWVRQAPGQGLEWMGRINPNSGGTNTAQKFQGRVTMTRDTSTSTVYMELSSLRSEDTAVYYCARLGDVAVAASFDYWGQGTLVTVSS
VL: DIQMTQSPSSLSASVGDRVTITCRASQSISSYLNWYQQKPGKAPKLLIYDASSLESGVPSRFSGSGSGTDFTLTISSLQPEDFATYYCQQANSFPLTFGPGTKVDIK
notes: as for B1
As to B7, the figures for the binding result in experiment [1] and in experiment [10] were “binds” and “no binding (tested: fold change <2.0)”, respectively. Further, the “MFI fold change over parental CHO” value in [2] is 28.3 fold; in experiment [3], 30.1 fold.

Values taken from patent US20240400677A1 (ELECTRA THERAPEUTICS, published 2024).
